Assay results from patent US20250147051A1, “METHOD FOR DETECTING A TAU PROTEIN IN A SALIVA SAMPLE” (GTINVENT LIMITED, priority 2022, published 2025).

Experiments:
[1] = system: core region tau; assay: S1D12 immunotherapy 6-week repeat-dose mouse study, plasma tau by CA4-S1G2 core-core Simoa assay; assay type: in vivo; settings: 30 mg/kg i.p. once per week for six weeks, CA4-S1G2 Simoa
Procedure: A total of 12 wildtype, 12 Line 1 and 12 Line 66 female mice were used in this study—Line 1 and Line 66 are transgenic mouse models of tauopathy (Melis et al., 2015). Animals were 2 months old at the beginning of the study. Mice of each genotype were injected intraperitoneally (i.p.) with either vehicle or S1D12 mAb (30 mg/kg), once per week, for six consecutive weeks.
Seven days post final dose, cardiac puncture blood sampling was performed. mice were anaesthetised using an overdose of sodium pentobarbital (i.p.) and blood was collected via cardiac puncture through a Plastipak syringe pre-rinsed with heparinised saline (10 U/mL) and transferred into a plastic vial containing lithium heparin anticoagulant. Blood samples were centrifuged to obtain plasma at 2,000×g for 5 min at 6° C.
In order to monitor the ‘treatment effect’ of S1D12 mAb, plasma tau of vehicle control and antibody treated L66^+/+ mice were assessed via a core-core homebrew Simoa® assay to investigate changes in core tau pools in these mice.

[2] = system: tau; assay: Western blot of mouse brain homogenates (WT, L66+/+, L1+/+); settings: 20 μg brain homogenate protein, 5-month-old WT, L1+/+ mice
Procedure: Protein equivalent to 20 μg from each brain extract was separated using 4-20% bis-tris gels and run in 1×MES buffer. […] A clear band is visible in the lanes containing L66^+/+ samples, but no other bands are detectable (WT or L1^+/+). […] Once again, a band having relative mobility of 65 kDa is visible in the L66 sample with no other reactive bands present.
This band most likely corresponds to endogenous mouse tau which is of a similar size. In the L66^+/+ samples, a second band running at approximately 68 kDa is also detected. The presence of numerous other bands indicates proteolytic truncation of tau within brain homogenates.

[3] = target: dGA (Homo sapiens, UniProt P10636); assay: Biacore X100 SPR binding kinetics of anti-tau scAbs (scAb captured via HuCk), analyte dGA; settings: lead scAbs; for ka: Table 24; for dissociation rate constant (kd): Table 24, dissociation rate
Procedure: Surface plasmon resonance (SPR) is widely regarded as the gold standard for real time measurement of protein-protein interactions such as antibody binding. All SPR experiments were carried out using a Biacore X100 machine and HBS EP+ running buffer (GE Healthcare). A ‘capture’ method was followed for affinity measurements, where an anti-human constant kappa chain (HuCk) antibody was conjugated to the surface of a CM5 sensor chip using an amine coupling kit and scAb molecules were immobilised via their HuCk domain. Amine coupling is a very common approach for immobilising the ligand to the chip surface. The chip surface has a dextran matrix derivatised with carboxyl groups, which after activation with N-hydroxysuccinimide (NHS) and 1-ethyl-3-(3-dimethylaminopropyl) carbodiimide (EDC), form reactive succinimide esters which allows the covalent capturing of the ligand via any available primary amine groups (e.g. Lysine) on the ligand (in this case anti-HuCk antibody). The capture antibody was diluted 1/100 in 10 mM Sodium acetate buffer pH 5.0 and passed over the activated chip surface for a period of at least 420 s. Final ligand immobilisation levels over 12,000 RU were deemed to be satisfactory.
Following immobilisation, the level of each scAb to be captured was identified using the standard SPR equation with a theoretical RMax of 100 RU. Analyte MW refers to the molecular weight of hT40 or dGA/dGAE molecules, while ligand MW refers to the molecular weight of the scAbs tested. RLis the desired capture level and S refers to the stoichiometric ratio:
The scAb to be tested was added only to flow cell 2 so that flow cell 1 could act as a control to subtract any interaction with the analyte and the chip surface. Both single and multi-cycle runs were utilised using wizards developed in the Biacore X100 control software which are both accepted methods of kinetic analysis (Karlsson, R., et al. Analyzing a kinetic titration series using affinity biosensors (2006) Analytical Biochemistry 349:136-47). The multi-cycle protocol was as follows-Three start-up cycles composed of an initial capture, to the desired level, of the scAb to be tested was performed followed by a 30 s injection of glycine buffer pH 2.0 after each cycle to regenerate the chip surface. The regeneration step removed any captured scAb whilst leaving the capture antibody intact and able to repeat the capture for the next cycle. Following three start-up cycles increasing concentrations (0.15625 nM-100 nM) of the target to be tested were added to the chip surface after the desired scAb capture. The target was added for a 120 s association period and 420 s dissociation period followed by another regeneration, 30 s injection of glycine buffer pH 2.0 in between each cycle.
The single cycle kinetics protocol was similar and utilised the same level of scAb capture. Three start-up cycles were used followed by 5 increasing concentrations of the analyte (6.25 nM-100 nM) for an association period of 120 s followed by a dissociation period of 420 s for each concentration. In single cycle kinetics the regeneration step was performed only after the final analyte concentration was added. Binding responses were analysed in Biacore X100 evaluation software and data fitted to a 1:1 binding model to obtain kinetic and affinity characterisation.

[4] = target: T1, dGAE aggregates (Homo sapiens, UniProt P10636); assay: Sandwich ELISA LoD for SDS Triton X-100 treated dGAE aggregates; assay type: binding; settings: label = detection scAb
T1 construct: host or cells: aggregated in house: 100 μM dGAE with DTT, 700 rpm, 37 °C, 24 h
Procedure: For aggregation, 1000 μL 100 μM dGAE+10 μL 10 mM DTT was added to a ‘LoBind’ microfuge tubes and agitated at 700 RPM/37° C. for 24 hours. Resulting sample centrifuged at 17,000×g/4° C. for 60 min and supernatant discarded to remove left over monomer. Pellet resuspended in half the original volume for future experiments and hereafter referred to as ‘aggregates’. 1 μl of aggregates was added to 1 ml of PBS and SDS was added to a final concentration of 1% (w/v). This was left to incubate on lab bench for 1 h with gentle agitation every 15 minutes. In order to neutralise the SDS effect on ELISA, Triton X-100 added to a final concentration of 3% (v/v) and mixed gently by pipetting to prevent any bubble formation. 200 μl added of this mix was to the first well of an ELISA plate coated with 1 μg/ml S1D12 mAb and blocked with 2% MPBS. Similarly aggregates treated with only SDS or Triton X-100, untreated aggregates, dGAE monomers treated with only SDS or SDS+Titon X-100 were also added to designated wells as controls. All samples were then double diluted across the plate in final volumes of 100 μl. The final column was left with no protein to act as a blank. This was allowed to stand at room temperature for 1 hour followed by the addition of detection scAb-S1G2 at 10 μg/ml. Anti-HuCk HRP labelled secondary antibody was added as described previously and ELISA data generated was represented using the graph below. In addition, limits of detection (LoD) of various core binding antibody pairing for SDS Triton X-100 treated dGAE aggregates were calculated using the above describe ELISA method and substituting capture mAbs and detection scAbs as shown in Table 30.

Chain of dGA (P10636 614-707): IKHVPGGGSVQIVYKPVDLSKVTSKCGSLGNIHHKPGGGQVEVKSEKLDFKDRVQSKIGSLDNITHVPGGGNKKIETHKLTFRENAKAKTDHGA
T1 sequence (P10636 614-708): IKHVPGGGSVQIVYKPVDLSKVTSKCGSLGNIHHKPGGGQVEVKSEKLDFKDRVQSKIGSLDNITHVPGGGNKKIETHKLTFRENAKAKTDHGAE

Molecule	ka [3]	dissociation rate constant (kd) [3]	LoD, S1D12 mAb capture, +SDS Triton dGAE agg. [4]	LoD, direct immobilisation of dGAE aggregates, +SDS Triton dGAE agg. [4]	also measured
S1D12 mAb: S1D12 reformatted as mAb; heavy chain SEQ ID NO: 445, light chain SEQ ID NO: 446 (antibody, S1D12 mAB Heavy Chain; S1D12 mAB Light Chain) heavy: QVQLQESGPSLVKPSQTLSLTCTVSGFSLNNNAVGWVRQAPGKVPESLVGCSSDGTCYYNSALKSRLDITRDTSKNQISLSLSSVTTDDAAVYYCTRGHYSIYGYDYLGTIDYWGPGLLVTVSSAKTTAPSVYPLAPVCGDTTGSSVTLGCLVKGYFPEPVTLTWNSGSLSSGVHTFPAVLQSDLYTLSSSVTVTSSTWPSQSITCNVAHPASSTKVDKKIEPRGPTIKPCPPCKCPAPNLLGGPSVFIFPPKIKDVLMISLSPIVTCVVVDVSEDDPDVQISWFVNNVEVHTAQTQTHREDYNSTLRVVSALPIQHQDWMSGKEFKCKVNNKDLPAPIERTISKPKGSVRAPQVYVLPPPEEEMTKKQVTLTCMVTDFMPEDIYVEWTNNGKTELNYKNTEPVLDSDGSYFMYSKLRVEKKNWVERNSYSCSVVHEGLHNHHTTKSFSRTPGK light: QAVLTQPSSVSGSLGQRVSITCSGSSSNVGGGNSVGWYQHLPGSGLKTIIYDTNSRPSGVPDRFSGSRSGNTATLTINSLQAEDEGDYYCVTGDSTTHDDLVGSGTRLTVLGGQPKSSPSVTLFPPSSEELETNKATLVCTITDFYPGVVTVDWKVDGTPVTQGMETTQPSKQSNNKYMASSYLTLTARAWERHSSYSCQVTHEGHTVEKSLSRADCS	–	–	–	–	plasma tau, wildtype mice with treatment [1]: 3.57 (0.22) ng/ml; plasma tau, L1 mice with S1D12 treatment ([1]; above upper limit of detection): > 100 ng/mL
CC7: anti-tau clone, SEQ ID NO: 365 (protein, CC7 amino acid sequence) scFv: QVQLQESGPSLVKPSQTLSLTCTVSGFSLTSNAVIWVRQAPGKAPEWVALIDVDGDAAYDPALKSRLSITRDTSKSQVSLSLRSVTTEDTAVYYCARDYGSWGYVSDIDYWGPGLLVTVSSEGKSSGASGESKVDDRVVRTQPSSVSGSLGQRVSITCSGSYITGSSVGWFQQVPGSGLKTVIYDNNDRPSGVPDRFSGSKSGDTATLTISSLQAEDEADYYCASYDTSNIGLFGSGTRLTVLG	–	–	–	–	Western blot reactivity [2]: specificity for human tau
NS2A1: anti-tau clone, SEQ ID NO: 220 (protein, NS2A1 amino acid sequence) scFv: QVQLQESGPSLVKPSQTLSLTCTVSGFSLSTNSVGWVRQAPGKAPEWVAGIDTDGEEGFNPVLKSRLSITRDTSKSQVSLSLSNVTSEDTAVYYCGRSYRTDGLAYGYVQAIDYWGPGLLVTISSEGKSSGASGESKVDDQSVLTQPSSVSGSPGQTVSITCSGSYIGSSGVGWFQQLPGSGLRTIIVASDGRPSGVPDGFSMSKSGNTATLTISSLQAEDEADYFCGSSDRTQYTGLFGSGTRLTVLG	188000 M⁻¹ s⁻¹	0.00102 s⁻¹	–	–	–
S1E12: anti-tau clone, SEQ ID NO: 218 (protein, S1E12 amino acid sequence) scFv: QVQLQESGPSLVKPSQTLSLTCTVSGFSLGSNSVGWVRQAPGKAPEWVAGIDTDGEEGYNPALNSRLSITRDTSKSQVSLSLSSVTSEDTAVYYCGRSYRADGLAYGYVQAIDYWGPGLLVTVSSEGKSSGASGESKVDDRVVRTQPSSVSGSLGQRVSITCSGSFIGISSVGWFQQLPGSGLRTIIVASDGRPSGVPDRFSMSKSGNTATLTISSLQAEDEADYFCGSSDRTQYTGVFGSGTRLTVLG	2.99e+06 M⁻¹ s⁻¹	0.001627 s⁻¹	–	–	–
CA9: anti-tau clone, SEQ ID NO: 371 (protein, CA9 amino acid sequence) scFv: QVQLQESGPSLVKPSQTLSLTCTVSGFSLTSNSVGWVRQAPGKAPEWVAGIDTDGEEGYNPALNSRLSITRDTSKSQVSLSLSSVTSEDTAVYYCGRSYRSDGLAYGYVQAIDYWGPGLLVTVSSEGKSSGASGESKVDDQAVLTQPASVSGSLGQRVSITCSGSFIGISSVGWFQQLPGSGLRTIIVASDGRPSGVPDRFSMSKSGNTATLTISSLQAEDEADYFCGSSDRTQYTGVFGSGTRLTVLG	–	–	4 ng/mL	40 ng/mL	–
CA12: anti-tau clone, SEQ ID NO: 372 (protein, CA12 amino acid sequence) scFv: QVQLQGSGPSLVKPSQTLSLTCTVSGFSFDSYYVGWVRQAPGKALEWLGNIYSTGRAFYNPALKSRLSITRDTSKSQVSLSVSSVTIEDTALYYCVRGSYYHGGGNGMVDFFDYWSPGLLVTVSSEGKSSGASGESKVDDQVVRTQPSSVSGSLGQRVSITCSGSSSNVGYGNYVGWFQQVPGSAPKLLIYAATSRASGVPDRFSGSRSGNTATLTIDSLQAEDEADYYCSSYQRGNTGVFGSGTRLTVLG	–	–	2 ng/mL	16 ng/mL	–
